Reference: article PMC5312596, “A novel Pfs38 protein complex on the surface of Plasmodium falciparum blood-stage merozoites” (Malaria Journal, 2017)

T1: recombinant PfMSP-1_(65) (aa 1052–1664) (Plasmodium falciparum 3D7, UniProt Q8I0U8 1052-1664)
T1 construct: Merozoite surface protein 1 (MSP-1), Plasmodium falciparum 3D7, aa 1052-1664, amplified from 3D7 cDNA and cloned in pET28b (NcoI/XhoI); Cloning in pET28b between NcoI and XhoI would give a C-terminal His6 (surmised); also called rPfMSP-1_(65); source: E. coli BL21, soluble, purified (Ni-NTA)
T1 sequence: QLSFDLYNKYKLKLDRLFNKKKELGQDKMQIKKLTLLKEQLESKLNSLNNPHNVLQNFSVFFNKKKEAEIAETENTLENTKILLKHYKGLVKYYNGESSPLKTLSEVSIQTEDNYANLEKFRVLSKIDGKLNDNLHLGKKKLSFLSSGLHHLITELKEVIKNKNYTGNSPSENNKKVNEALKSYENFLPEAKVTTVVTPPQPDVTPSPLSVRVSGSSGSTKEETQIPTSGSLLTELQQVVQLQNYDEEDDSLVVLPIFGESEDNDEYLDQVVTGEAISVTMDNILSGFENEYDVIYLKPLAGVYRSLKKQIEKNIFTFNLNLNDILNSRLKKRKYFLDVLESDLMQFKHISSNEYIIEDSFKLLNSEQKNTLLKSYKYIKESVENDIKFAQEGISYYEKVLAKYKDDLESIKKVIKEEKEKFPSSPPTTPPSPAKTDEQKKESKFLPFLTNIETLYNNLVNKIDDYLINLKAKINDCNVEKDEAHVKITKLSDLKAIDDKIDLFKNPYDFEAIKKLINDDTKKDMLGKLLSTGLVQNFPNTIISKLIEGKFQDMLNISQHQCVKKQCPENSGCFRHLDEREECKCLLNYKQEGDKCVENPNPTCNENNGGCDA

B1: recombinant Pfs38 (6-Cys domain, aa 153–328) (domain or fragment)
chain: KIPGCDFNADYKESTAITTFSNMSPRRVKVCDVYPKSGDFISLMCPSDYSIKPDGCFSNVYVKRYPNEEVKEEDRFNLNRKWDASKYNVVSIETVLKMNMITQGDKYSIFSKLPDVKDQVDFTCICQSNDEQDNLMMNVYINNTSYLTNNTRSIGVNKHSFSNSEIFERIEREEIS
notes: Pfs38, Plasmodium falciparum 6-Cys protein; 6-Cys domain aa 153-328, amplified from a codon-optimised synthetic gene (aa 22-328) and cloned in pET28b between NcoI and XhoI; Cloning in pET28b between NcoI and XhoI would give a C-terminal His6 (surmised); The forward primer adds a few residues (Met-Gly-Ser) before the insert (surmised from the primer); also called rPfs38

Experiments:
[1] = target: B1; assay: SPR; BIACORE 2000, 37 °C, HBS-EP buffer; GLURP R2 immobilised (up to 400 RU) on CM5 chip; Pfs38 injected at increasing concentrations, 20 µL/min; 1:1 Langmuir fit; details: both partners purified
[2] = target: T1, recombinant PfMSP-1_(65) (aa 1052–1664); assay: far-Western, overlay or dot blot; 1-5 µg recombinant protein separated by SDS-PAGE, blotted, denatured and renatured; membrane incubated with 2 µg/mL purified GLURP R2, Pfs38 or SERA-5 in 100 mM NaCl, 20 mM Tris pH 7.6, 0.5 mM EDTA, 10% glycerol, 1 mM DTT, 2 h at RT; detected with antisera to the soluble protein; details: both partners purified

| Binder | Kd [1] | binding result [2] |
| --- | --- | --- |
| recombinant GLURP R2 (domain or fragment, Limits are not printed. The conventional GLURP R2 fragment (705-1178, F32 strain, 1271-aa GLURP) is assumed. The 3D7 orthologue is Q8IJ56.) DGPVPSKPFEEIEKVDVQPKIVDLQIIEPNFVDSQPNPQEPVEPSFVKIEKVPSEENKHASVDPEVKEKENVSEVVEEKQNSQESVEEIPVNEDEFEDVHTEQLDLDHKTVDPEIVEVEEIPSELHENEVAHPEIVEIEEVFPEPNQNNEFQEINEDDKSAHIQHEIVEVEEILPEDDKNEKVEHEIVEVEEILPEDKNEKGQHEIVEVEEILPEDDKNEKVEHEIVEVEEILPEDKNEKGQHEIVEVEEILPEDKNEKVEHEIVEVEEILPEDKNEKGQHEIVEVEEILPEDKNEKVQHEIVEVEEILPEDKNEKGQHEIVEVEEILPEEDKNEKGQHEIVEVEEILPEDKNEKVQHEIVEVEEILPEDKNEKVQHEIVEVEEILPEIVEIEEVPSQTNNNENIETIKPEEKKNEFSVEEKAIPQEPVVPTLNENENVTPKPSEGESTKPDIVQIKIVQENKPNKKETPVVDG | 26 nM | – |
| B1 | – | binds |
